Data taken from patent publication EP3757216B1.

Target: gamma-globulin preparation (The Chemo-Sero-Therapeutic Research Institute), a human antibody (human)
Experiment: ELISA on immobilised human gamma-globulin, anti-6His detection; antibody binding activity after acid treatment (pH 3.0, 24 h, 30 C) divided by that without treatment

| RESIDUAL ACTIVITY [%] | Binder |
| --- | --- |
| 95.3 | FcγRIIa-m11 (receptor) MGQAAAPPKAVLKLEPPWTNVLQEDSVTLTCQGARSPESDSVLWFHNGNLIPTQTQLTYRFKATSNDSGEYTCQTGQTSLSDPVHLTVLSEWLVLQPPRLEFQEGETIMLRCHSWKDKPLVKVTFFQNGKSQKFSHLDPTFSIPQANHSHSGDYHCTGNIGYTSFSSKPVTITVQGGHHHHHH |
| 77.3 | FcγRIIa-m10A (receptor) MGQAAAPPKAVLKLEPPWTNVLQEDSVTLTCQGARSPESDSVLWFHNGNLIPTQTQPTYRFKATSNDSGEYTCQTGQTSLSDPVHLTVLSEWLVLQPPRLEFQEGETIMLRCHSWKDKPLVKVTFFQNGKSQKFSHLDPTFSIPQANHSHSGDYHCTGNIGYTSFSSKPVTITVQGGHHHHHH |
| 72.9 | FcγRIIa-m10C (receptor) MGQAAAPPKAVLKLEPPWINVLQEDSVTLTCQGARSPESDSVLWFHNGNLIPTQTQLTYRFKATSNDSGEYTCQTGQTSLSDPVHLTVLSEWLVLQPPRLEFQEGETIMLRCHSWKDKPLVKVTFFQNGKSQKFSHLDPTFSIPQANHSHSGDYHCTGNIGYTSFSSKPVTITVQGGHHHHHH |
| 46.9 | FcγRIIa-m10B (receptor) MGQAAAPPKAVLKLEPPWTNVLQEDSVTLTCQGARSPESDSVQWFHNGNLIPTQTQLTYRFKATSNDSGEYTCQTGQTSLSDPVHLTVLSEWLVLQPPRLEFQEGETIMLRCHSWKDKPLVKVTFFQNGKSQKFSHLDPTFSIPQANHSHSGDYHCTGNIGYTSFSSKPVTITVQGGHHHHHH |

Target: gamma-globulin preparation (The Chemo-Sero-Therapeutic Research Institute), a human antibody (human)
Experiment: ELISA on immobilised human gamma-globulin, anti-6His detection; antibody binding activity after acid treatment (pH 3.0, 72 h, 30 C) divided by that without treatment

| Binder | RESIDUAL ACTIVITY [%] |
| --- | --- |
| FcγRIIa-m11-Del3 (receptor) MGQAAAPPKAVLKLEPPWTNVLQEDSVTLTCQGARSDSVLWFHNGNLIPTQTQLTYRFKATSNDSGEYTCQTGQTSLSDPVHLTVLSEWLVLQPPRLEFQEGETIMLRCHSWKDKPLVKVTFFQNGKSQKFSHLDPTFSIPQANHSHSGDYHCTGNIGYTSFSSKPVTITVQGGHHHHHH | 72.4 |
| FcγRIIa-m11-Del2 (receptor) MGQAAAPPKAVLKLEPPWTNVLQEDSVTLTCQGARPSDSVLWFHNGNLIPTQTQLTYRFKATSNDSGEYTCQTGQTSLSDPVHLTVLSEWLVLQPPRLEFQEGETIMLRCHSWKDKPLVKVTFFQNGKSQKFSHLDPTFSIPQANHSHSGDYHCTGNIGYTSFSSKPVTITVQGGHHHHHH | 81.3 |
| FcγRIIa-m11-Del5 (receptor) MGQAAAPPKAVLKLEPPWTNVLQEDSVTLTCQGADSVLWFHNGNLIPTQTQLTYRFKATSNDSGEYTCQTGQTSLSDPVHLTVLSEWLVLQPPRLEFQEGETIMLRCHSWKDKPLVKVTFFQNGKSQKFSHLDPTFSIPQANHSHSGDYHCTGNIGYTSFSSKPVTITVQGGHHHHHH | 86.5 |
| FcγRIIa-m11-Del1 (receptor) MGQAAAPPKAVLKLEPPWTNVLQEDSVTLTCQGARPESDSVLWFHNGNLIPTQTQLTYRFKATSNDSGEYTCQTGQTSLSDPVHLTVLSEWLVLQPPRLEFQEGETIMLRCHSWKDKPLVKVTFFQNGKSQKFSHLDPTFSIPQANHSHSGDYHCTGNIGYTSFSSKPVTITVQGGHHHHHH | 89.8 |

Now from value to binder:

| RESIDUAL ACTIVITY [%] | Binder |
| --- | --- |
| 25.4 | FcγRIIa-m11-Del6 (receptor) MGQAAAPPKAVLKLEPPWTNVLQEDSVTLTCQGDSVLWFHNGNLIPTQTQLTYRFKATSNDSGEYTCQTGQTSLSDPVHLTVLSEWLVLQPPRLEFQEGETIMLRCHSWKDKPLVKVTFFQNGKSQKFSHLDPTFSIPQANHSHSGDYHCTGNIGYTSFSSKPVTITVQGGHHHHHH |
| 33.3 | FcγRIIa-m11-Del7 (receptor) MGQAAAPPKAVLKLEPPWTNVLQEDSVTLTCQDSVLWFHNGNLIPTQTQLTYRFKATSNDSGEYTCQTGQTSLSDPVHLTVLSEWLVLQPPRLEFQEGETIMLRCHSWKDKPLVKVTFFQNGKSQKFSHLDPTFSIPQANHSHSGDYHCTGNIGYTSFSSKPVTITVQGGHHHHHH |
| 83.6 | FcγRIIa-m11 (receptor) MGQAAAPPKAVLKLEPPWTNVLQEDSVTLTCQGARSPESDSVLWFHNGNLIPTQTQLTYRFKATSNDSGEYTCQTGQTSLSDPVHLTVLSEWLVLQPPRLEFQEGETIMLRCHSWKDKPLVKVTFFQNGKSQKFSHLDPTFSIPQANHSHSGDYHCTGNIGYTSFSSKPVTITVQGGHHHHHH |
| 76.7 | FcγRIIa-m11-Del4 (receptor) MGQAAAPPKAVLKLEPPWTNVLQEDSVTLTCQGASDSVLWFHNGNLIPTQTQLTYRFKATSNDSGEYTCQTGQTSLSDPVHLTVLSEWLVLQPPRLEFQEGETIMLRCHSWKDKPLVKVTFFQNGKSQKFSHLDPTFSIPQANHSHSGDYHCTGNIGYTSFSSKPVTITVQGGHHHHHH |
